Experimental findings from US20240025949A1, “Beta-Arrestin Effectors and Compositions and Methods of Use Thereof” (Trevena, Inc., priority 2021, published 2024) are described below.

In one assay the target is T1, rat AT1aR (Rattus norvegicus, UniProt P25095).
T1 construct: ProLink (β-galactosidase enzyme-donor fragment, from the pCMV-ProLink vector)
T1 sequence (P25095 1-359): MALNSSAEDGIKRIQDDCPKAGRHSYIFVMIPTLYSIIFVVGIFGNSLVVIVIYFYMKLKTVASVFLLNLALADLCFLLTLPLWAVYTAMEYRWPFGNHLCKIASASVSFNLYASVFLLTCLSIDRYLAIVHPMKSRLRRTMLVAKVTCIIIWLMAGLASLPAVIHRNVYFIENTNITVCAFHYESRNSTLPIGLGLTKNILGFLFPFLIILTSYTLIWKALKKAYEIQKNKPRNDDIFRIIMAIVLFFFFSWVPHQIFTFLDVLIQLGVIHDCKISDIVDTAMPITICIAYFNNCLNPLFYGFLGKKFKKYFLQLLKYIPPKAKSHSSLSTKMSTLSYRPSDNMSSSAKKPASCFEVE
Nature of the assay: PathHunter β-arrestin-2 recruitment assay, rat AT1aR. The conditions noted are these: PathHunter β-arrestin HEK293 cells, inactive = EC50 greater than 10 uM. In kind it is cell-based. For orientation: Arrestin recruitment assays detect the binding of arrestin to an activated receptor.

The target in assay [1] is rat angiotensin 2 type 1 receptor (rat) (UniProt P25095). The assay is described as follows: cell-based or functional assay.
The target in assay [2] is human angiotensin 2 type 1 receptor (human) (UniProt P30556). Nature of the assay: cell-based or functional assay.

Where no end group is shown, it is not given here. Where only a bound is given, the exact number is not on record here.

Sequence of human angiotensin 2 type 1 receptor (human) (P30556 whole entry): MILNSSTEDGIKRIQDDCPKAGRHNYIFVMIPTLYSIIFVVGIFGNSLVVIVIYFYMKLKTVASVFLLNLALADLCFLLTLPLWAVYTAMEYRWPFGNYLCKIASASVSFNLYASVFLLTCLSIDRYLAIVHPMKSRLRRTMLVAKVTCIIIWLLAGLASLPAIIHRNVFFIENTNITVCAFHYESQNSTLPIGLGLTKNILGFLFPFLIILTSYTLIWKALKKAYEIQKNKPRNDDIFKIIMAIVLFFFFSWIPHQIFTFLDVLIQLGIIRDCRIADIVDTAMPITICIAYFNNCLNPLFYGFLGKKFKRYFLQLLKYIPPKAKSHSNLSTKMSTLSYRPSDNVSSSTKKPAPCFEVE
Experimental for rat AT1aR: B-arrestin-2 recruitment to the human and rat angiotensin 2 type 1 receptor (human AT1R and rat AT1aR, respectively) was measured with the PathHunter™ β-arrestin assay (DiscoveRx Corporation, Fremont CA). Cells, plasmid(s), and detection reagent(s) were purchased from DiscoveRx, and assays were performed per the manufacturer's instructions. Human AT1R and rat AT1aR were cloned into the pCMV-ProLink vector, verified by sequencing, and transfected into PathHunter β-arrestin HEK293 cells. Stably transfected clonal cell lines were selected with Hygromycin and G418. These clonal cell lines were used for all experiments.
For assays, 25,000 cells were seeded per well in 96-well microplates in volumes of 90 μL and allowed to grow overnight at 37° C. in 5% CO2. Peptides provided herein were dissolved in deionized water to a concentration of 1 mM. Peptides were then further diluted in assay buffer (Hank's balanced salt solution with 20 mM HEPES) to add peptide to the cells to reach final concentrations ranging from 10 μM to 1 pM. […]
The microplates were then incubated at room temperature for 60 minutes, and then luminescence was measured using a NOVOstar microplate reader purchased from BMG Labtech. B-arrestin-2 recruitment to receptors was measured as relative luminescence intensity expressed in arbitrary units.

As for `CCCCC(=O)N(Cc1ccc(-c2ccccc2-c2nnn[nH]2)cc1)[C@H](C(=O)O)C(C)C` [Valsartan], the “rat AT1aR b-arrestin2 EC50 (M)” value at rat AT1aR is “inactive”.
For the molecule RVYIHPRVYIHPRVYIHP (cyclic) [SEQ ID NO: 36 (Cyclo(Arg-Val-Tyr-Ile-His-Pro-Arg-Val-Tyr-Ile-His-Pro-Arg-Val-Tyr-Ile-His-Pro))], in assay [1], the IP One EC50 was 100 nM, the IP One Max was 19.2%, the b-arrestin2 EC50 came to 1900 nM and the b-arrestin2 Max stood at 32.8%. Also, in assay [2], the IP One EC50 is over 10000 nM, the b-arrestin2 EC50 turned out to be 1200 nM and the b-arrestin2 Max came to 39.5%.
In assay [1], RVYYHPI (N-terminal Sar; C-terminal acid) [SEQ ID NO: 14 (Sar-Arg-Val-Tyr-Tyr-His-Pro-Ile-OH)] gave an IP One EC50 of 32 nM, an IP One Max of 19.3%, a b-arrestin2 EC50 of 14 nM and a b-arrestin2 Max of 79%. Besides, in assay [2], the IP One EC50 was 160 nM, the IP One Max turned out to be 13.5%, the b-arrestin2 EC50 amounted to 8 nM and the b-arrestin2 Max stood at 59.3%.
In assay [1], FVYIHPFVYIHPFVYIHP (cyclic) [SEQ ID NO: 37 (Cyclo(Phe-Val-Tyr-Ile-His-Pro-Phe-Val-Tyr-Ile-His-Pro-Phe-Val-Tyr-Ile-His-Pro))] showed an IP One EC50 of 240 nM, an IP One Max of 14.7%, a b-arrestin2 EC50 of 1900 nM and a b-arrestin2 Max of 60.7%. In assay [2], this molecule showed an IP One EC50 of over 10000 nM, a b-arrestin2 EC50 of 1700 nM and a b-arrestin2 Max of 62.3%.
For DRVYFHP-NH2 [SEQ ID NO: 63 (Asp-Arg-Val-Tyr-Phe-His-Pro-NH2)], in assay [1], the IP One EC50 was over 10000 nM, the b-arrestin2 EC50 was 530 nM and the b-arrestin2 Max was determined as 50.1%. Moreover, in assay [2], the IP One EC50 is over 10000 nM, the b-arrestin2 EC50 was found to be 530 nM and the b-arrestin2 Max was found to be 35.9%.
In assay [1], RVYVHPI (N-terminal Sar; C-terminal amide) [SEQ ID NO: 12 (Sar-Arg-Val-Tyr-Val-His-Pro-Ile-NH2)] displayed an IP One EC50 of 79 nM, an IP One Max of 44.9%, a b-arrestin2 EC50 of 120 nM and a b-arrestin2 Max of 34.4%. In assay [2], this molecule showed an IP One EC50 of 190 nM, an IP One Max of 20.7%, a b-arrestin2 EC50 of 390 nM and a b-arrestin2 Max of 19.9%.
In assay [1], ERVYYHP (D-residue; C-terminal amide) [SEQ ID NO: 60 (D-Glu-Arg-Val-Tyr-Tyr-His-Pro-NH2)] displayed an IP One EC50 of over 10000 nM, a b-arrestin2 EC50 of 180 nM and a b-arrestin2 Max of 79.3%. In assay [2], this molecule returned an IP One EC50 of over 10000 nM, a b-arrestin2 EC50 of 340 nM and a b-arrestin2 Max of 44%.
Turning to RVYIHP-NH2 [SEQ ID NO: 13 (Arg-Val-Tyr-Ile-His-Pro-NH2)], in assay [1], the IP One EC50 is over 10000 nM, the b-arrestin2 EC50 was 43000 nM and the b-arrestin2 Max worked out at 165%. For the same molecule, in assay [2], the IP One EC50 is over 10000 nM, the b-arrestin2 EC50 turned out to be 4600 nM and the b-arrestin2 Max worked out at 43.4%.
Regarding DRVYYHP (D-residue; C-terminal amide) [SEQ ID NO: 58 (D-Asp-Arg-Val-Tyr-Tyr-His-Pro-NH2)], in assay [1], the IP One EC50 is 1400 nM, the IP One Max is 9.94%, the b-arrestin2 EC50 is 260 nM and the b-arrestin2 Max came out at 81.1%. In assay [2], this molecule displayed an IP One EC50 of over 10000 nM, a b-arrestin2 EC50 of 330 nM and a b-arrestin2 Max of 48.7%.
In assay [1], ARVYVHPA (N-methyl residue; C-terminal acid) [SEQ ID NO: 33 (NMAla-Arg-Val-Tyr-Val-His-Pro-Ala-OH)] gave an IP One EC50 of over 10000 nM, a b-arrestin2 EC50 of 31 nM and a b-arrestin2 Max of 86.9%. In assay [2], the IP One EC50 is over 10000 nM, the b-arrestin2 EC50 stood at 40 nM and the b-arrestin2 Max was 54.9%.
In assay [1], DRVYYHP-NH2 [SEQ ID NO: 57 (Asp-Arg-Val-Tyr-Tyr-His-Pro-NH2)] came in with an IP One EC50 of 330 nM, an IP One Max of 35.3%, a b-arrestin2 EC50 of 450 nM and a b-arrestin2 Max of 64.4%. Further, in assay [2], the IP One EC50 came to 3.6 nM, the IP One Max was 10%, the b-arrestin2 EC50 was found to be 430 nM and the b-arrestin2 Max is 42.1%.
For DRVYYHP (N-methyl; C-terminal amide) [SEQ ID NO: 61 (N-Me-Asp-Arg-Val-Tyr-Tyr-His-Pro-NH2)], in assay [1], the IP One EC50 was over 10000 nM, the b-arrestin2 EC50 is 2100 nM and the b-arrestin2 Max amounted to 60.4%. In assay [2], this molecule yielded an IP One EC50 of over 10000 nM, a b-arrestin2 EC50 of 1200 nM and a b-arrestin2 Max of 37.5%.
With RVYVHPI (N-terminal Sar; C-terminal acid) [SEQ ID NO: 11 (Sar-Arg-Val-Tyr-Val-His-Pro-Ile-OH)], in assay [1], the IP One EC50 stood at 3.5 nM, the IP One Max is 24.4%, the b-arrestin2 EC50 worked out at 6.1 nM and the b-arrestin2 Max was 80.7%. In assay [2], this molecule returned an IP One EC50 of over 10000 nM, a b-arrestin2 EC50 of 3.4 nM and a b-arrestin2 Max of 58.9%.
In assay [1], RVYIHP (N-terminal Sar; C-terminal norvaline) [SEQ ID NO: 35 (Sar-Arg-Val-Tyr-Ile-His-Pro-NVA-OH)] registered an IP One EC50 of 12 nM, an IP One Max of 30.5%, a b-arrestin2 EC50 of 9.3 nM and a b-arrestin2 Max of 79.8%. In addition, in assay [2], the IP One EC50 was 2.7 nM, the IP One Max came out at 7.1%, the b-arrestin2 EC50 was determined as 12 nM and the b-arrestin2 Max was determined as 67.9%.
In assay [1], VYIHPF (cyclic) [SEQ ID NO: 38 (Cyclo(Val-Tyr-Ile-His-Pro-Phe))] yielded an IP One EC50 of 920 nM, an IP One Max of 20.8%, a b-arrestin2 EC50 of 2500 nM and a b-arrestin2 Max of 66.4%. In assay [2], the IP One EC50 is over 10000 nM, the b-arrestin2 EC50 was found to be 680 nM and the b-arrestin2 Max came out at 43.1%.
With ARVYIHPA (N-methyl residue; C-terminal acid) [SEQ ID NO: 34 (NMAla-Arg-Val-Tyr-Ile-His-Pro-Ala-OH)], in assay [1], the IP One EC50 is over 10000 nM, the b-arrestin2 EC50 is 32 nM and the b-arrestin2 Max stood at 81.7%. In addition, in assay [2], the IP One EC50 was over 10000 nM, the b-arrestin2 EC50 came to 25 nM and the b-arrestin2 Max was 53%.
In assay [1], ERVYYHP-NH2 [SEQ ID NO: 59 (Glu-Arg-Val-Tyr-Tyr-His-Pro-NH2)] came in with an IP One EC50 of over 10000 nM, a b-arrestin2 EC50 of 820 nM and a b-arrestin2 Max of 27.8%. In assay [2], this molecule displayed an IP One EC50 of over 10000 nM, a b-arrestin2 EC50 of 1400 nM and a b-arrestin2 Max of 19.5%.
In assay [1], ERVYYHP (N-methyl; C-terminal amide) [SEQ ID NO: 62 (N-Me-Glu-Arg-Val-Tyr-Tyr-His-Pro-NH2)] came in with an IP One EC50 of over 10000 nM, a b-arrestin2 EC50 of 3900 nM and a b-arrestin2 Max of 44.2%. In assay [2], this molecule had an IP One EC50 of over 10000 nM, a b-arrestin2 EC50 of 1300 nM and a b-arrestin2 Max of 24.7%.
